Data: US20250051821

Legend:
IFF05588 = target: T1, IFF05588
T1 chain: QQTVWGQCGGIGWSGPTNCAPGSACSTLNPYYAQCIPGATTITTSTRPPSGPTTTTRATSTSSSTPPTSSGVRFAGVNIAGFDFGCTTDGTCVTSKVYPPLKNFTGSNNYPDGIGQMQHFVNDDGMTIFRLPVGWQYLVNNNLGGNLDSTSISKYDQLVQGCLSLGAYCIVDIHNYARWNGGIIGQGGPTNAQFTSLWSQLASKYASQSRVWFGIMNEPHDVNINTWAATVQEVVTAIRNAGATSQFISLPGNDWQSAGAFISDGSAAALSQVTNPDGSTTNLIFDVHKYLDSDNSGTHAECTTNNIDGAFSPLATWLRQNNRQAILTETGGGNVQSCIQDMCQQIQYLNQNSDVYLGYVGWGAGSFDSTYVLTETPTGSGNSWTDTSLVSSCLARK

IFF07399 = target: T2, IFF07399
T2 chain: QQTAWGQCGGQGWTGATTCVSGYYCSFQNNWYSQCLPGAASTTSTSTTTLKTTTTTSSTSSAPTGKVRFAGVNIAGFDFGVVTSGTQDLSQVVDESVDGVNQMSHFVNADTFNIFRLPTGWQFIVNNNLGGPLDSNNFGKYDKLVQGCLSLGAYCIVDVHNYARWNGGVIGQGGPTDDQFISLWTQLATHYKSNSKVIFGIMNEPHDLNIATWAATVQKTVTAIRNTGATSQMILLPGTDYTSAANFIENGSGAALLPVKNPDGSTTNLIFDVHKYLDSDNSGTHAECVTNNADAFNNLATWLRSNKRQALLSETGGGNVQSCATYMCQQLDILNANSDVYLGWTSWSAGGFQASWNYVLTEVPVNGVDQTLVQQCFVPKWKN

| Protein | Relative late peak area (centered, scaled, averaged over 5, 10 and 15 min) (IFF05588) | Relative late peak area (centered, scaled, averaged over doses, 24 h; sample diluted 2-fold) (IFF05588) | Gel mobility change (SDS-PAGE) (IFF07399) | Relative late peak area (centered, scaled, averaged over doses, 24 h; sample diluted 10-fold) (IFF05588) | Relative late peak area (centered, scaled, averaged over doses, 24 h; sample diluted 1-fold) (IFF05588) | modification of IFF05588 (reverse phase chromatography, 5 to 15 min) (IFF05588) | Relative late peak area (reverse phase chromatography, 24 h) (IFF05588) |
| --- | --- | --- | --- | --- | --- | --- | --- |
| IFF21366 (protein) QNLNKPVLFSDGLSPHVDSVFFQHLTPTQSTWDKWGWGWIPQACLSVVQGTQFSPYDIEVYNVHYTDCASAVVMCRHNQAQMSIINMIDAFGRIPIHDRQWTQHILALPAGGCSAGTGGAVTTFYGPCYIPSVFVHELTHTLDAFVNDKTGSTGAVHVYSTTSSYLNSVNQDSCVPDGYANTSPQEDYAQTSVLALYEKVNPGGLDPIGPWRCLVNAKNNLDSIIGQELTPGGSCTHRWADSAIVCMGPAAGCTSSKRGFEGRRGLKPVGPKPNPANKKGDPLVLDLLPDLASVVNAKITDFSHLSSNHTAGIEATIRINAWNKAAGKETVPVPKA | 0.34 | 1.02 | yes |  |  |  |  |
| IFF21344 (protein) KLDKPIIQPNFPGGGLASLGQGLLNNLSPTQSTSDNWGAGWIPADCKSLVQGAGLSPFDVTPFNIHYTDCSQTWTFCRHKDSPLSQTDIIDLFGRVPVRMRDFIRHYVFIPGATSAGSSGDNTLMVGNVDITVFLHEIGHSLDSHAFDPSYGVPFSTSNVWISNYNLDSAVTDSYAQTSQQENFAQETVVSVYDKVVPGGIGTIQPNWQAIFHQYATLQGYIGNTIIPGGTCVNRLTDSQPVTMGNSAKFRRGLGPKPTVSLSPDVKEIKPIPMSDSITMTTFDEFGKANGTYVIHL | 1.36 |  | yes | 0.79 |  |  |  |
| IFF21358 (protein) GNPDKPEVNPHIPYDRLENDLRNNLHPTQSTWDYWGAGWIPQGCKDLANTYHLNPADFTIFNVHYTDCSASWTFCRHKNAGASEIDMIDIFGRLPVRMRSYLRHLVATPGLNDGAAAWTWSSGDCVVESAPNLATLVHEVSHSLDWHALPQYQQPFSSSSIWQDNYNQDSATPTGYGRTNWMENFAETGMVGVYDKAVPGGIGNIEPNWNAIFHQYATYQGYLGDKIIAGGSCANRFDDTPPVAMSNSAKFKITSAKPETGIDFAGKNITQIIPSKEFEGLYIKG | -1.04 |  | yes |  | -1.46 | All samples containing proteins related to IFF05497 except seven (IFF21355, IFF21358, IFF21356, IFF21361, IFF21370, IFF21357 and IFF21353) are able to modify IFF05588 under these reaction conditions |  |
| IFF21374 (protein) QRLNKPALTPNLDYLEQGNIDNLHPTHSTWDKWGPGWIPADCKSIAQNEGKNPDDFEIYNVHYDDCSDAWVFCRHKDSNVDLVTTIDIFGRLPVKMRSWVRHVITIPGDSWAYNSNGNIAFFGTTSSSMDVAIHETGHSLDLLGAYWGKTFSDSSTWLDNYNQDPNVPDEYAQTNQVENVAQNTVVGVYDKVVPGGFGSVQPNWHNIFHQYATLQWGAGDQIIPGGTCDRHLQNSETVPTGNSALAFNAVNRPDTSLKGNYSNIVTDFKEFSTRGNCRI |  |  | yes |  |  |  | 0.51 |
| IFF21372 (protein) QNLGKPVLFTDGLSPHVDASFWAHLNPTQSTWDQWGWGWIPQSCFDAANSNNVSPYDFEVFNVHYTDCGTAWVFCRHHSASLSQIDMIDLFGRLPVHERQWIRHVVAVPGGGSAYELNADVVFQGPVGTPSVFQHEVGHAVDFYKNGFQSSGTSQFLNAIQQDSCVPDDYANSNNVEDYTQVGVLSLYEIVNPGGLDPIGANWRCLVNQKNVLDGFQRDNMIPGGVCDRRWADSTIVKMGPAVPRVKRGPVGPIPQPAGLPVPGPSKAGPDVYKNLVFNATEKRNAETRQAAWQKAAKGAEA | 1.62 |  |  | 1.18 |  |  | 0.6 |
| IFF21347 (protein) KLDKPVIQPNFPGGGLASLGQGLLDNLKPTQSTSDVWGAGWIPADCKSLVQGAGLSPNDITPFNIHYTDCSQTWTFCRHKDSPLSQTDIIDLFGRVPVRMRDYIRHYVFIPGNKSAGSSGDNTLMVGDVDITVFLHEIGHSLDSHAFDPSYGVPFSTGNVWISNYNQDSAVTDDYAQSSQQENFAQETVVSVYDKNVPGGIGNIQPNWQAIFHQYATLEGYIGDTIIPGGTCVNRLTDSQPVTMSNSAKFRRNLGPKPTVSLSPDVKEIKAIPMADSIKMTSFDEHGKPNGTYVIQL | 1.74 |  |  | 1.14 |  |  | 0.59 |
| IFF21345 (protein) KLDKPIIQPNFPGGGLASLGQGLLNNLSPTQSTSDNWGAGWIPADCKSLVQGAGLSPFDVTPFNIHYTDCSQTWTFCRHKDSPLSQTDIIDLFGRVPVRMRDFIRHYVFIPGATSAGSSGDNTLMVGNVDITVFLHEIGHSLDSHAFDPSYGAPFSNSNIWISNYNLDSAVTDSYAQTSQQENFAQETVVSVYDKVVPGGIGTIQPNWQAIFHQYATLQGYIGDTIIPGGTCVNRLTDSQPVTMGNSAKFRRGLGPKPTVSLSPDVKEIKPIPMSDSITMTTFDEFGKANGTYVIHL | 1.82 |  |  | 1.24 |  |  |  |
| IFF21346 (protein) NLDKPVIQPNFPGGGLASLGQGLLDNLKPTQSTSDVWGAGWIPADCKSLVQGAGLSPNDITPFNIHYTDCSQTWTFCRHKDSPLSQTDIIDLFGRVPVRMRDYIRHYVFIPGNKSAGSSGDNTLMVGDVDITVFLHEIGHSLDSHAFDPSYGVPFSTGNVWISNYNQDSAVTDSYAQSSQQENFAQETVVSVYDKNVPGGIGNIQPNWQAIFHQYATLEGYIGDTIIPGGTCVNRLTDSQPVTMSNSAKFRRTLGPKPTVSLSPDVKEIKPIPMADSIKMTSFDEHGKPNGTYVINL | 0.52 | 1.07 |  |  |  |  |  |
| IFF21370 (protein) DDTPPFKPVISPAFDFYGTLEDGLRANLAPTQSTWDQWGEGWIPDDCKWYAEYYGYAANEFEVFNVKYTDCDEAWIMCRHKQATVSQTGMIDLFGRLPLGMREYVKHVVMAPETKANTVASSYRGTIAFDQDYFSIYNLVHETGHCMDGTAALDVFPDGISSSSIWQDNYNQDSAVVRDYARSSWVENFAETGTVAVYDKVVPGGIGPIQPNWEQIYHQYATYNGYLSDIITPGAKDKCTQRRENSETVAMGASSRIMRSSPPDTSFKSDVKVMPAGANDEFFFEHSRDH | -1.05 |  |  |  |  | All samples containing proteins related to IFF05497 except seven (IFF21355, IFF21358, IFF21356, IFF21361, IFF21370, IFF21357 and IFF21353) are able to modify IFF05588 under these reaction conditions |  |
